In article PMC10874388, “Cyclic peptides discriminate BCL-2 and its clinical mutants from BCL-XL by engaging a single-residue discrepancy” (Nature Communications, 2024) one finds Kd and Ki data, which are given here for nine molecules.

Starred links: 1 amine or outer side, 2 acyl side, 3 side chain; linkers in the order of their positions; H or OH if unused. Positions of bridges follow the written chain, without caps; N, C: chain ends. Residues, ends and D or L forms follow the SMILES beside them. Primed or numbered codes have the meaning given here. No end group written: not given here. *: point of attachment. X1 = O=C(C[*:2])NCCNC(=O)c1ccc(C2=N[C@H](C(=O)[*:1])CS2)cc1; FITC = O=C1OC2(c3ccc(O)cc3Oc3cc(O)ccc32)c2ccc(NC(=S)*)cc21; c‑ADT″ = 2-aryl-4,5-dihydrothiazole linker; ADT (ClAc-3) = not defined here; c‑ADT = not defined here

The target in one test is T1, BCL-XL (Homo sapiens, UniProt Q07817, DEL27-81).
T1 construct: human BCL-XL (residues 1–210, with 27–81 and 210–233 removed); vector-borne tag of pET-22b (Ni-NTA purification implies a His tag); made in house; host or cells: E. coli BL21 (DE3)
Nature of the test: SPR binding assay, BCL-XL. The conditions noted are these: affinity fitting, mean ± SD of three independent experiments, 25 °C. The source says:
(§1) The DNA fragments encoding human BCL-XL ([…], with […] removed), BCL-w (residues 6–152), MCL-1 (residues 152–308) and BFL-1 (residues 1–151) as previously reported[18] were cloned into a pET-22b vector (Invitrogen), respectively. A chimeric human BCL-2 (including residues 1–50 and 92–207) was constructed, by removing the internal long loop (residues 51–91) and replacing its residues 35–50 with residues 33–48 of BCL-XL to solubilize the protein[14], and then it was cloned into a pET28a-Sumo vector (Invitrogen). All BCL-2 mutants (G101V, F104L, Y103D, D111A) were generated by mutagenic PCR, according to the QuikChange (Stratagene) protocol.
(§2) SPR assays were performed using a Biacore T200 instrument in running buffer consisting 10 mM PBS, 50 μM EDTA and 0.05% Tween-20 at 25 °C. Biotinylated proteins were immobilized on a CAP sensor chip (Cytiva, 28920234). […] The binding affinities were quantified by the Biacore evaluation software using 1:1 binding model. The reproducibility of the assays was confirmed by performing replicate determinations.
A general note: Surface plasmon resonance follows binding to a sensor surface in real time, without labels.

Another test deals with MCL-1 (Homo sapiens, UniProt Q07820). The test can be described thus: SPR binding assay, MCL-1. The conditions noted are these: NB = no binding.
From the text: as §1, §2

In the next test the target is T2, BFL-1 (Homo sapiens, UniProt Q16548).
T2 construct: BFL-1 (residues 1–151); vector-borne tag of pET-22b (Ni-NTA purification implies a His tag); made in house; host or cells: E. coli BL21 (DE3)
T2 sequence (Q16548 1-151): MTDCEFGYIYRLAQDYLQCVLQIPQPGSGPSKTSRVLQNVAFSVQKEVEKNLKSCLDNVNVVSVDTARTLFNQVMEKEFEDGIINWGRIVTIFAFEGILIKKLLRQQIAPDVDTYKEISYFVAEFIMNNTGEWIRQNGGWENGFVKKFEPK
Nature of the test: SPR binding assay, BFL-1. Particulars: NB = no binding.
From the text: as §1, §2

Test [1] has as its target T3, chimeric human BCL-2 (residues 1-50 and 92-207, residues 35-50 replaced with residues 33-48 of BCL-XL) (human, UniProt P10415 1-34; Q07817-1 33-48; P10415 92-207, biotinylated for the SPR assays (sites not given)).
T3 construct: BCL-2, human, residues 1-34 (residues 35-50 are replaced, see next part); BCL-XL, human, residues 33-48, replacing residues 35-50 of BCL-2; BCL-2, human, residues 92-207 (internal loop 51-91 removed); also called BCL-2 WT; source: E. coli BL21 (DE3), purified (Ni-NTA, Superdex 75, RESOURCE Q, Superdex 200)
T3 chain (looked up): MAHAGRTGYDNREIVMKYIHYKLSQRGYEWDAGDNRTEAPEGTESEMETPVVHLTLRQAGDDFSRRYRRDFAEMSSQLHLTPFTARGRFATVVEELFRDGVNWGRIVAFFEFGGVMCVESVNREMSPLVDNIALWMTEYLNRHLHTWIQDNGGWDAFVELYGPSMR
The test can be described thus: SPR; Biacore T200; biotinylated proteins immobilised on a CAP sensor chip, peptides flowed over at 30 uL/min in multiple cycles; 10 mM PBS, 50 uM EDTA, 0.05% Tween-20, 25 °C; 1:1 binding model. Particulars: both partners purified.

For test [2], the target named is T4, human BCL-XL (residues 1-210, with 27-81 and 210-233 removed) (human, UniProt Q07817-1 1-210, 27-81 removed, biotinylated for the SPR assays (sites not given)).
T4 construct: BCL-XL, human, residues 1-210 with the loop 27-81 removed; source: E. coli BL21 (DE3), purified (Ni-NTA, Superdex 75, RESOURCE Q, Superdex 200)
The description is as above. The conditions noted are these: both partners purified.

The target of test [3] is T3, chimeric human BCL-2 (residues 1-50 and …). Nature of the test: fluorescence polarisation; competition: cp2-F/BCL-2 complexes (20/400 nM) or cp3-F/BCL-XL complexes (20/600 nM) treated with unlabelled peptides from 1.0 nM to 30.0 uM; 1x PBS pH 7.4, room temperature, 10 min; Ki calculated from EC50, one-site competitive model. Particulars: both partners purified.
For test [4], the target named is T4, human BCL-XL (residues 1-210, with …). Described as above. The conditions noted are these: both partners purified.
In test [5] the target is T3, chimeric human BCL-2 (residues 1-50 and …). The test can be described thus: fluorescence polarisation; direct binding: 20 nM FITC-labelled peptide, protein from 60 nM to 1000 nM; 1x PBS pH 7.4, room temperature, 10 min. Particulars: both partners purified. For orientation: In fluorescence polarisation assays a small probe gives low polarisation when free and higher when bound to something large.

The target of test [6] is T4, human BCL-XL (residues 1-210, with …). The test is described as above. The conditions noted are these: both partners purified.

T4 sequence (Q07817 other isoform, or with tags, fused parts or gaps 27-81 removed | 27-81 removed): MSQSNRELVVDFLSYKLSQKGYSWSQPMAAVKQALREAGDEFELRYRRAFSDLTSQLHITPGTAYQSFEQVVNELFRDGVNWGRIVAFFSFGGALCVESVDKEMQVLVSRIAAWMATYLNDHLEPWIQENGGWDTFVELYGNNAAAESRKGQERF
MCL-1, sequence (Q07820 152-308): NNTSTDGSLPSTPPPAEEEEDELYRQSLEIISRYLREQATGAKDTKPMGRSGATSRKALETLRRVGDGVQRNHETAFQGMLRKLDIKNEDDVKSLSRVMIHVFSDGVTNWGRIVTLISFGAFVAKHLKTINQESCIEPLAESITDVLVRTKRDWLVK

For `C[C@@H]1NC(=O)[C@@H]2CCCN2C(=O)[C@@H]2CSC(=N2)c2ccc(cc2)C(=O)NCCNC(=O)CSC[C@@H](C(=O)NCC(=O)N[C@@H](CO)C(=O)NCC(=O)N[C@@H](CO)C(=O)N[C@@H](CCCNC(=N)N)C(=O)N[C@@H](CCCCN)C(=O)N[C@@H](CCCCN)C(=O)N[C@@H](CCCNC(=N)N)C(=O)N[C@@H](CCCNC(=N)N)C(=O)N[C@@H](CCC(N)=O)C(=O)N[C@@H](CCCNC(=N)N)C(=O)N[C@@H](CCCNC(=N)N)C(=O)N[C@@H](CCCNC(=N)N)C(=O)N[C@@H](CCC(=O)O)C(=O)N[C@@H](CCC(=O)O)C(=O)N[C@@H](CCC(=O)O)C(=O)N[C@@H](CCC(=O)O)C(=O)N[C@@H](CCC(=O)O)C(=O)N[C@@H](CCC(=O)O)C(=O)N[C@@H](CCC(=O)O)C(=O)N[C@@H](CCC(=O)O)C(N)=O)NC(=O)[C@H](CCC(=O)O)NC(=O)[C@H](Cc2ccc(O)cc2)NC(=O)[C@H](CC(=O)O)NC(=O)[C@H](Cc2c[nH]c3ccccc23)NC(=O)CNC(=O)[C@H](Cc2ccc(O)cc2)NC(=O)[C@H](CCCNC(=N)N)NC1=O` [cp1-TAT-8E] (PARYGWDYECGSGSRKKRRQRRREEEEEEEE-NH2; linker N-10 via X1), binding on BCL-XL was characterised by a dissociation constant (Kd) of 1170 ± 70 nM.

`CC[C@H](C)[C@@H]1NC(=O)[C@@H]2CCCN2C(=O)[C@@H]2CSC(=N2)c2ccc(cc2)C(=O)NCCNC(=O)CSC[C@@H](C(N)=O)NC(=O)[C@H](Cc2ccccc2)NC(=O)[C@H](CCC(=O)O)NC(=O)[C@H](CC(=O)O)NC(=O)[C@H](Cc2c[nH]c3ccccc23)NC(=O)[C@H](CCC(=O)O)NC(=O)[C@H](Cc2ccc(O)cc2)NC(=O)[C@H](CCCNC(=N)N)NC1=O` [cp2] (PIRYEWDEFC-NH2; linker N-10 via X1): the Kd at MCL-1 and on BFL-1 was greater than 12.8 µM in each case.

For `CC[C@H](C)[C@@H]1NC(=O)[C@@H]2CCCN2C(=O)[C@@H]2CSC(=N2)c2ccc(cc2)C(=O)NCCNC(=O)CSC[C@@H](C(N)=O)NC(=O)[C@H](CCC(=O)O)NC(=O)[C@H](C(C)C)NC(=O)[C@H](CC(=O)O)NC(=O)[C@H](Cc2c[nH]c3ccccc23)NC(=O)[C@@H]2CCCN2C(=O)[C@H](Cc2ccc(O)cc2)NC(=O)[C@H](CCCNC(=N)N)NC1=O` [cp3] (PIRYPWDVEC-NH2; linker N-10 via X1), the Kd on MCL-1 and on BFL-1 was greater than 12.8 µM each time.

On to CPIRYEWDEFCGSGSRKKRRQRRREEEEEEEE (linker 1-11 via c‑ADT; reading uncertain, source: synthetic peptide) [cp2-TAT-8E], for which the values for the Kd in test [1] and in test [2] were 140 ± 50 nM and 130 ± 9 nM, respectively.

For CPIRYPWDVECGSGSRKKRRQRRREEEEEEEE (linker 1-11 via c‑ADT; reading uncertain, source: synthetic peptide) [cp3-TAT-8E], the dissociation constant Kd (as a rule, the constant that tells how readily two partners part at equilibrium) worked out at 70 ± 10 nM in test [1] and 20 ± 1 nM in test [2].

B1: cp3 (peptide)
peptide: CPIRYPWDVEC-NH2
modifications: linker 1-11 via c‑ADT″
notes: cyclic peptide from the CPXRYXWDXXC phage library screened against BCL-XL; source: synthetic peptide
Consider B1, for which the results for the Ki in [3] and in test [4] were 152 nM and 333 nM, respectively.

B2: cp3-F (peptide)
peptide: CPIRYPWDVECGK(FITC)
modifications: linker 1-11 via ADT (ClAc-3) (inferred); reading uncertain; also: modified by ClAc-3, printed as CPIRYPWDVECG{K(FITC)}
notes: also called cp3-FITC; source: synthetic peptide
In the case of B2, the Kd in test [5] stood at 177 nM; in [6] it was 270 nM.

B3: cp2-F (peptide)
peptide: CPIRYEWDEFCGK(FITC)
modifications: linker 1-11 via ADT (ClAc-3) (inferred); reading uncertain; also: modified by ClAc-3, printed as CPIRYEWDEFCG{K(FITC)}
notes: also called cp2-FITC; source: synthetic peptide
With B3, the Kd in test [5] came to 97.2 nM; in test [6] it was 810 nM.

B4: cp2 (peptide)
peptide: CPIRYEWDEFC-NH2
modifications: linker 1-11 via c‑ADT″
notes: cyclic peptide from the CPXRYXWDXXC phage library screened against BCL-2; source: synthetic peptide
Turning to B4, the results for the Ki in test [3] and in [4] were 22.5 nM and 682 nM, respectively.
